Data published in patent publication US20250340659A1 (PETMEDIX, published 2025).

Tests used:
[1] = target: T1, canine OX40L, full length membrane form, expressed on HEK293 cells (canine); experiment: flow cytometry
T1 construct: also called OX40L expressing HEK; HEK OX40L cells
T1 chain: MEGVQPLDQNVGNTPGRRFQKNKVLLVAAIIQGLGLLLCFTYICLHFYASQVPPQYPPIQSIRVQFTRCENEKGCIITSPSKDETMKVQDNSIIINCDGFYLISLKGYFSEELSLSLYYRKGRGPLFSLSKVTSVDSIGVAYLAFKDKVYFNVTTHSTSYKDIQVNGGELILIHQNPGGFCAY
Experimental: (§1) CHO supernatants diluted in FACS buffer (PBS containing 3% FBS) at 1, 5 or 10 μg/ml were used to screen for their binding capacity to canine OX40L using a cell-based assay. In brief, HEK293 or MEF cells (or any other commonly used cell lines) expressing canine OX40L at the cell surface are incubated with 100 μll of FACS buffer containing the candidate antibody for 30′ on ice. Cells are washed with 150 μl FACS buffer followed by centrifugation at 300 g for 3 min. The cell pellet is resuspended in FACS buffer containing a 1:1000 dilution of a fluorescently labelled secondary antibody recognising the canine Fc region of the test antibody for 30 min in the dark, followed by washing with 150 μl FACS buffer. Cells are resuspended in FACS buffer and flow cytometry performed using either a […] cytometer, followed by data analysis using FlowJo (FIG. 6 and Table 4).

[2] = target: T2, recombinant canine OX40L ECD-TNCc-HIS protein (canine); experiment: SPR Koff (kd2)
T2 construct: also called Trimeric OX40L probe (HIS tag); trimeric canine OX40L
T2 chain: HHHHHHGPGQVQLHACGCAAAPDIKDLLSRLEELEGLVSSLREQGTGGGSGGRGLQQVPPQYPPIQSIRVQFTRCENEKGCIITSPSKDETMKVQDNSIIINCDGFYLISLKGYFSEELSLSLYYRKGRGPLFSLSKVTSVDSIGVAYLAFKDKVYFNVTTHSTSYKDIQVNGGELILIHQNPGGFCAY
Experimental: (§2) Affinity (Kd) of OX40L antibodies is measured by SPR, using a recombinant canine OX40L ECD-TNCc-HIS protein (Seq ID 811) as the capturing agent (FIG. 5B).
(§3) Functional affinity is determined using a Biakore 8K (Cytiva). in brief, purified OX40L ECD-TNCc-HIS protein is covalently bound at low density to the surface of a CM5 sensor chip (Cytiva) by amine coupling, using the manufacturer's recommended protocol. Candidate antibodies are subsequently passed across the chip surface at a range of concentrations and affinity determined using the dedicated software (Biacore Insight Evaluation Software). Curves were fitted using a bivalent analyte binding model.

[3] = target: T1, canine OX40L, full length membrane …; experiment: flow cytometry, OX40L HEK minus WT HEK
Experimental: as §1

[4] = target: T2, recombinant canine OX40L ECD-TNCc-HIS …; experiment: SPR KD1, bivalent analyte model
Experimental: as §2, §3

[5] = target: T2, recombinant canine OX40L ECD-TNCc-HIS …; experiment: SPR Koff (kd1)
Experimental: as §2, §3

[6] = target: T1, canine OX40L, full length membrane …; experiment: cell-based or functional assay

Row | Binder | GEO mean OX40L expressing HEK [1] | koff [2] | GEO mean difference [3] | Kd [4] | koff [5] | % Signal Inhibition Average [6] | % Signal Inhibition Rep1 [6] | % Signal Inhibition Rep2 [6] | % Signal Inhibition Rep3 [6]
1 | PMX049 (antibody, V domains shown, also called PMX49) VH: EVQLVESGGDLVKPGGSLRLSCVASGFTFNNYEMYWVRQAPGKGLEWVARIYESGSTTFSAEAVTGRFTISRDNAKNMVYLQMNSLRAEDTAVYYCASASSSSWRFDYWGQGTLVTVSS VL: SYVLTQLPSVSVTLGQTARITCGGDSIGRKNVCWFQQRLGQAPELIIYDDRSRPSGIPERFSGANSGNTATLTISGALAEDEADYYCQVWDSSTGVFGGGTHLTVL | 3.5e+06 | 22 s⁻¹ | 3.48e+06 | 0.0156 µM | 0.00211 s⁻¹ | 84.7% | 84.6% | 79.3% | 90.1%
2 | PMX037 (antibody, V domains shown, also called PMX37) VH: EVQLLESGGDLVKPGGSLRLSCVASGFTFSNYEMYWVRQAPGKGLEWVARFYESGSTTYSAEAVPGRFTISRDNAKNMAYLQMNSLRAEDTAVYYCASASSSSWRFDYWGQGTLVTVSS VL: SYVLTQLPSVSVTLGQTARITCGGDSIGSKNVYWFQQKLGQAPVLIIYDDRSRPSGIPERFSGANSGNTATLTISGALAEDEADYYCQVWDSSTGVFGGGTHLTVL | 1.42e+06 | 0.000862 s⁻¹ | 1.39e+06 | 0.308 µM | 0.0183 s⁻¹ | 78.4% | 85.7% | 79.8% | 69.8%
3 | PMX048 (antibody, V domains shown, also called PMX48) VH: EVQLVESGGDLVKPGGSLRLSCVASGFTFNNYEMYWVRQAPGKGLEWVARIYESGTTTYSAEADTGRFTISRDNAKNMVFLQMNSLRAEDTAVYYCASASSSTWRFDYWGQGTLVTVSS VL: SYVLTQLPSVSVTLGQTARITCGGDSIGRKNVYWFQQKLGQAPVLIIYDDRSRPSGIPERFSGANSGNTATLTISGALAEDEADYYCQVWDSSTGVFGGGTHLTVL | 3.92e+06 | 21 s⁻¹ | 3.9e+06 | 0.0122 µM | 0.00485 s⁻¹ | 69.9% | 57.5% | 69.3% | 82.9%
4 | PMX025 (antibody, V domains shown, also called PMX25) VH: EVHLVESGGDLVKPGGSLRLSCVASGFTFSSYHMSWVRQAPGKGLQWVAFINAGEISTNYADAVKGRFTISRDNAKNILYLQMNSLRAEDTAVYYCASGHIWIRPFDYWGQGTLVTVSS VL: SYVLTQLPSMSVTLRQTARITCEGDSIGRKRVNWYQQKLGQVPVLIIYDDDSRPSGIPERFSGANSGNTATLTISGALAEDEAEYYCQVWDSSNNWVFGEGTQLTVL | 2.83e+06 | 0.00169 s⁻¹ | 2.81e+06 | 0.195 µM | 0.0129 s⁻¹ | 72.6% | 87.9% | 61.7% | 68.3%
5 | PMX027 (antibody, V domains shown, also called PMX27) VH: EVHLVESGGDLVKPGGSLRLSCVASGFTFSTYHMSWVRQAPGKGLQWVAFINAGEISTNYADAVKGRFTISRDNAKNIFYLQMNSLRAEDTAVYYCATGHIWIRPFDYWGQGTLVTVSS VL: SYVLTQLPSMSVTLRQTARITCEGNSIGRKRVNWYQQKLGQVPVLIIYDDDSRPSGIPERFSGANSGNTATLTISGALAEDEAEYYCQVWDSSNNWVFGEGTQLTVL | 1.65e+06 | 0.000505 s⁻¹ | 1.62e+06 | 0.316 µM | 0.0161 s⁻¹ | 80.4% | 72.2% | 83.5% | 85.5%
6 | PMX098 (antibody, V domains shown) VH: EVQLVESGGDLVKPGGSLRLSCVASGFTFNTYHMNWVRQAPGKGLHWVAFINSGGSGTSYADTVKGRFTISRDYAKNTLYLQMNSLRAEDTAVYYCASGSIWTHFDYWGQGTLVTVSS VL: SYVLTQLPSVSLTLRQTAHITCGGDIIGSKSVYWYQQKLGQAPVLIIYRDNNRPTGIPERFSGASSGNTATLTISGALAEDEADYYCQVWDSSTQAMFGGGTHLTVL | – | 1.03 s⁻¹ | – | 0.0141 µM | 0.00147 s⁻¹ | 45% | 40.4% | 55% | 39.8%
7 | PMX104 (antibody, V domains shown) VH: EVQLVESGGDLVRPGGSLRLSCVASGFTFSNYHMSWVRQAPGKGLQWVAFINSGGTSTTYADAVRGRFTTSRDYAKNTLYLQMNSLRAEDTAVYYCTSGSIWTHFDYWGQGTLVTVSS VL: SFVLTQLPSVSVTLRQTARITCGGDIIGSKSVYWFQQKLGQAPILIIYRDDNRPTGIPERFSGASSGNTATLIISGALAEDEAHYYCQVWDSSSKAMFGGGTHLTVL | – | 1.23 s⁻¹ | – | 0.0176 µM | 0.00174 s⁻¹ | 31% | 31% | 28.1% | 33.9%
8 | PMX097 (antibody, V domains shown, also called PMX97) VH: EVQLVESGGDLVRPGGSLRLSCVASGITFSSYHMSWVRQAPGKGLQWVALINSGGSSITYADVVRGRFTISRDYAKNTLYLQMNSLRAEDTAVYYCASGSIWTHFDYWGQGTRVTVSS VL: SFVLTQLPSVSVTLRQTARITCGGDIIGSKNVYWYQQRLGQAPVLIIYRDSNRPTGIPERFSGASSGNTATLTISGALAEDEADYYCQVWDNSNKAMFGGGTHLTVL | – | 0.744 s⁻¹ | – | 0.000492 µM | 7.16e-05 s⁻¹ | 60.8% | 56.1% | 73.1% | 53.2%
9 | PMX041 (antibody, also called PMX41) heavy: EVHLVESGGDLVKPEGSLRLSCVVSGFTFTTNDMSWVRQAPGKGLQWVAYITSDGRITTYTDAVKGRFTISRDNAKNTLYLQMNSLRTEDTAVYYCAKHSSNWSRGRFGLDYWGHGTSLFVSSASTTAPSVFPLAPSCGSTSGSTVALACLVSGYFPEPVTVSWNSGSLTSGVHTFPSVLQSSGLYSLSSMVTVPSSRWPSETFTCNVAHPASKTKVDKPVPKRENGRVPRPPDCPKCPAPESLGGPSVFIFPPKPKDTLLIARTPEVTCVVVDLGREDPEVQISWFVDGKQMQTAKTQPREEQFNGTYRVVSVLPIGHQDWLKGKQFTCKVNHIGLPSPIERTISKARGQAHQPSVYVLPPSREELSKNTVSLTCLIKDFFPPDIDVEWQSNGQQEPESKYRTTPPQLDEDGSYFLYSKLSVDKSRWQRGDTFICAVMHEALHNHYTQKSLSHSPGK VL: SYVLTQLPSKNVTLKQPAHITCGGDNIGSKSVHWYQQKLGQAPVLIIYYDSSRPTGIPERFSGANSGNTATLTISGALAEDEADYYCQVWDNSASVFGGGTHLTVL | 1.56e+06 | 0.000409 s⁻¹ | 1.53e+06 | 1.59 µM | 0.0134 s⁻¹ | 80.1% | 86.4% | 78.2% | 75.6%
